From patent US5976495A, “Peptide derived radionuclide chelators” (Resolution Pharmaceuticals, Inc., priority 1996, dated 1999)
No end group written: not given here. *: point of attachment. Acm = CC(=O)NC*

Test system: focal inflammation in the leg (zymosan-injected left hindleg)
Format: in vivo, male Wistar rats
Settings: rat; for Fluid:Blood (inflammatory exudate:blood) / Inflam:Uninfl (inflamed:uninflamed muscle, target to background ratio): i.v. via tail vein, 30 minutes, average of two rats; for Inflam:Uninfl (inflamed:uninflamed muscle, target to background ratio): corrected for residual dose in the tail; for GI Tract (% dose) / Liver (% dose) / Urine (% dose): in vivo, iv
Method: Rat inflammation studies were performed as follows.
Serial whole-body scintigrams were acquired at 30 minutes.

Substance | Fluid:Blood (inflammatory exudate:blood) | Inflam:Uninfl (inflamed:uninflamed muscle, target to background ratio) | GI Tract (% dose) | Liver (% dose) | Urine (% dose)
N,N-dibenzylGly-Ser-Cys(Acm)-Gly-Thr-Lys-Pro-Pro-Arg ({N,N‑dibenzyl}-GSC(Acm)GTKPPR) | 0.4 | 3.7 | 7.5 | 2.3 | 55.1
N,N-dimethylGly-Ser-Cys(Acm)-Gly-Thr-Lys-Pro-Pro-Arg ({N,N‑dimethyl}-GSC(Acm)GTKPPR) | 1.9 | 5.3 | 2.8 | 2.4 | 63.5
N,N-dimethylGly-Thr-Cys(Acm)-Gly-Thr-Lys-Pro-Pro-Arg ({N,N‑dimethyl}-GTC(Acm)GTKPPR) | 1.6 | 4.6 | 2.5 | 2.4 | –
